From US20200123228A1
Where no end group is shown, it is not given here.

Target: bovine collagen (Symatese), polymerized gel (bovine)
Assay: retention on polymerized bovine collagen gel, antibody loaded at 10 µg/mL, released antibody measured by ELISA

B1: PlGF-2123-144-αPD-L1 (clone 10F.9G2) (antibody, part only; not given: anti-PD-L1 antibody, part only)
peptide: RRRPKGRGKRRREKQRPTDCHL
modifications: not fully specified (residue 20); also: antibody conjugate, average 6 peptides per antibody
B1 was tested, and the % of bound antibody released by plasmin digestion after buffer changes was 47.1%.
